How the values were obtained:
[1] = biological target: T1, human EGFRvIII protein on the surface of U87MG-hEGFRvIII cells (human, UniProt P00533 25-1210); test: cell-based or functional assay
[2] = biological target: T2, human EGFRvIII-hFc protein (human, UniProt P00533 25-645); test: ELISA, coated EGFRvIII-hFc, antibody 0.0001 nM
T2 construct: extracellular domain; made in HEK293 cells, purified on protein A; also called immunogen A; hFc-tagged EGFRvIII protein; not shown: human IgG Fc fragment (hFc) of the pCpC vector
Protocol: (§1) The purified immunogen A (EGFRvIII-hFc) obtained in example 1 (for the preparation method, see step (I) in example 1) is diluted with PBS to a final concentration of 1.0 μg/mL, and then added to a 96-well ELISA plate at 100 μl/well. The plate is sealed with a plastic film and incubated at 4° C. overnight. The next day, the plate is washed twice with a plate washing solution [PBS+0.01% (v/v) Tween20], and added with a blocking solution [PBS+0.01% (v/v) Tween20+1% (w/w) BSA] for blocking 2 hours at room temperature. The blocking solution is discarded, and the purified EGFRvIII antibody obtained in example 2 is added at 100 μl/well. The plate is incubated for 2 hours at 37° C., and then washed 3 times with the plate washing solution [PBS+0.01% (v/v) Tween20]. The plate is added with an HRP (horseradish peroxidase) labeled secondary antibody (purchased from Sigma), incubated at 37° C. for 2 hours, and then washed 3 times with the plate washing solution [PBS+0.01% (v/v) Tween20]. The plate is added with 100 μl of TMB substrate/well, incubated for 30 minutes at room temperature, and then added with 100 μl of stopping solution (1.0N HCl)/well. A450 nm value is read using an ELISA plate reader (SpectraMax 384plus, purchased from Molecular Device), and the results are shown in FIG. 6 and table 10.

[3] = biological target: T2, human EGFRvIII-hFc protein; test: ELISA, coated EGFRvIII-hFc, antibody 0.001 nM
Protocol: as §1

[4] = biological target: T2, human EGFRvIII-hFc protein; test: ELISA, coated EGFRvIII-hFc, antibody 0.01 nM
Protocol: as §1

[5] = biological target: T2, human EGFRvIII-hFc protein; test: ELISA, coated EGFRvIII-hFc, antibody 0.1 nM
Protocol: as §1

[6] = biological target: T2, human EGFRvIII-hFc protein; test: ELISA, coated EGFRvIII-hFc, antibody 1 nM
Protocol: as §1

[7] = biological target: T2, human EGFRvIII-hFc protein; test: ELISA, coated EGFRvIII-hFc, antibody 100 nM
Protocol: as §1

[8] = biological target: T2, human EGFRvIII-hFc protein; test: ELISA, coated EGFRvIII-hFc, antibody 10 nM
Protocol: as §1

[9] = biological target: T1, human EGFRvIII protein on the surface …; test: FACS on U87MG-hEGFRvIII cells
Protocol: The cells are washed twice with the HBSS buffer and are counted, and then the cells are diluted with the HBSS buffer to 2×10⁶ cells/ml, added with 1% goat serum blocking solution, with the percentage being the mass percentage, and incubated on ice for 30 minutes, and then centrifugally washed twice with the HBSS buffer. The collected cells are suspended to 2×10⁶ cells/mL with an FACS buffer (HBSS+1% BSA, with the percentage being the mass percentage), added to a 96-well FACS reaction plate at 100 μL/well, then added with 100 μL/well of the purified EGFRvIII antibody (samples to be tested) obtained in example 2, and incubated on ice for 2 hours. The plate is centrifugally washed twice with the FACS buffer, added with 100 μL/well of a fluorescence (Alexa 488) labeled secondary antibody (purchased from Invitrogen), and then incubated on ice for 1 hour. The plate is centrifugally washed 3 times with the FACS buffer, added with 100 μL/well of a fixing solution [4% (v/v) paraformaldehyde] for suspending the cells, and centrifugally washed twice with the FACS buffer after 10 minutes. The cells are suspended in 100 μL of the FACS buffer, and the results are detected and analyzed by FACS (FACS Calibur, purchased from BD). Data analysis is performed by using the software (CellQuest) to obtain the mean fluorescence intensity (MFI) of the cells. Data is further analyzed by using the software (GraphPad Prism5) to perform data fitting and calculate EC50. […] A431 cells (human epidermal cell cancer cell lines) have a large amount of wild-type EGFR protein expressed on the surface thereof. […] U87MG cells (human glioma cell lines) have a small amount of wild-type EGFR protein expressed on the surface thereof, while HEB cells (human glioma cell lines) have a high level of wild-type EGFR protein expression on the surface thereof.

B1: Murine anti-75G7-MMAF (antibody, V domains shown)
VH: EVQLQQSGPELVKPGASVKIPCKASGYTFTDYNMDWVKQSHGKSLEWIGDINPNNGDTIYNQKFKGKATLTVDKSSSTAYMELRSLTSEDTAVYYCARGDYDGYYPVYYAMDYWGQGTSVTVSS
VL: ENVLTQSPAIMSASPGEKVTMTCRASSSVSSSYLHWYQQKSGASPKLWIFSTSNLAAGVPARFSGSGSGTSYSLTVSSVEAEDAATYYCQQYSGYPLTFGAGTKLELK
[1]
  IC50, cell killing of U87MG-hEGFRvIII cells (CellTiter-Glo): 0.27 nM

B2: Murine anti-63A10-MMAF (antibody, V domains shown)
VH: QVQLQQSGAELARPGASVKMSCKASGYTFISFTMHWVKQRPGQGLEWIGYINPNSGYTKYNQKFKDKATLTAGQSSSTAYMQLSSLTSEDSAVYYCTRGGGRGFAYWGQGTLVTVSA
VL: DILMTQSPSSMSVSLGDTVTITCHASQDINSNIGWLQQKPGKSFKALIYHGTNLEDGVPSRFSGSGSGADYSLTISSLESEDFADYYCVQYAQFPFTFGSGTKLEIK
[1]
  IC50, cell killing of U87MG-hEGFRvIII cells (CellTiter-Glo): 0.01 nM

B3: Murine anti-64F1-MMAF (antibody, V domains shown)
VH: QVQLQQSGAELARPGASVKMSCKASGYTFSSYTMHWAKQRPGQGLEWIGYINPSSGYTKYNQKFKDKATLTADKSSSTAYMQLSSLTSEDSIVYYCARGGGRGFAYWGQGTLVTVSA
VL: QIVLTQSPAIMSASPGERVTMTCSASSSVSYMYWYQQKPGSSPRLLIYDTSNLASGVPVRFSGSGSGTSYSLTISRVEAEDAATYYCQQWSSYSLTFGAGTKLELK
[1]
  IC50, cell killing of U87MG-hEGFRvIII cells (CellTiter-Glo): 0.01 nM

B4: Murine anti-7E5-MMAF (antibody, V domains shown)
VH: EIQLQQSGPELVKPGASVKVSCKASGYSFTDYNMYWVKQSHGKSLEWIGYVDPSNGGTNYNQKFKGKATLTVDKSSSTAFMHLNSLTSEDSAVYYCARGFFDYWGQGTTLTVSS
VL: DIVMTQSPSSLTVTAGEKVTMSCKSSQSLLNSGNQKNYLTWYQQKPGQPPKLLIYWASNRESGVPDRFTGSGSGKDFTLTISSVQAEDLAVYYCQNDYRYPVTFGAGTKLELK
[1]
  IC50, cell killing of U87MG-hEGFRvIII cells (CellTiter-Glo): 0.02 nM

B5: Murine anti-43H6-MMAF (antibody, V domains shown)
VH: INAEYAGGPGLVKPSQSLSLTCTVTDYSITSDYAWNWIRQFPGNKLEWMGYISYSGNTNYNPSLKSRISITRDTSKNQFFLQLNSVTTEDTATYYCARLGRGFAYWGQGTLVTVSA
VL: DILMTQSPSSMSVSLGDTVSITCHASQDINSNIGWLQQKPGTSFKGLIYHGRNLEDGVPSRFSGSGSGEDYSLTISSLESEDFADYYCVQYAHFPPTFGAGTKLELK
[1]
  IC50, cell killing of U87MG-hEGFRvIII cells (CellTiter-Glo): 0.01 nM

B6: Murine anti-46C4-MMAF (antibody, V domains shown)
VH: EVHLQQSVAELVRPGASVKLSCTASGFNIKNTYMHWVKQRPEQGLEWIGRIDPANGNTKYAPKFQGKATITADTSSNTAYLQLSSLTSEDTAIYYCASDFDYWGQGTTLTVSS
VL: DVLMTQTPLSLPVSLGDQVSISCRSSQSIVNSNGNTHLEWYLQKPGQSPKVLIYKVSKRFSGVPDRFSGSGSGTDFTLKISRVEAEDLGVYYCFQGSHVPYTFGGGTKLEIK
[1]
  IC50, cell killing of U87MG-hEGFRvIII cells (CellTiter-Glo): 0.15 nM

B7: Murine anti-49G12-MMAF (antibody, V domains shown)
VH: EVQLLQSGAELVKPGASVKLSCTASGFNIKDYYMHWVKQRTEQGLEWIGRIDPEDGETKYAPKFQGKATMTADTSSNTAYLQLSSLTSEDTAVYYCASSAYYGRNYWGQGTTLTVSS
VL: QIVLTQSPAIMSASPGEKVTLTCSASSSLSSSYLYWYQQKPGSSPKLWIYSTSNLASGVPARFSGSGSGTSYSLTISSMEAEDAASYFCHQWSSYPYTFGGGTKLEIK
[1]
  IC50, cell killing of U87MG-hEGFRvIII cells (CellTiter-Glo): 0.02 nM

B8: Murine anti-53D8-MMAF (antibody, V domains shown)
VH: QVQLQQSGAELARPGASVKMSCKASGYTFTSYTMHWVKQRPGQGLEWIGYINPSSGYTKYNQIFKDKATLTADKSSSTAYMQLSSLTSEDSAVYYCTRGGGRGFAYWGQGTLVTVSA
VL: DILMTQSPSSMSVSLGDTVSITCHASQDINSNIGWLQQKPGKSFKGLIYHGTNLEDGVPSRFSGSGSGADYSLTISSLESEDFADYYCVQYAQFPFTFGSGTKLEIK
[1]
  IC50, cell killing of U87MG-hEGFRvIII cells (CellTiter-Glo): 0.04 nM

B9: Murine anti-56F10-MMAF (antibody, V domains shown)
VH: EVQLQQSGAELVKPGASVKLSCTASGFNIKDFYMHWVKQRTEQGLEWIGRIDPEDGETKYAPKFQGKATITADTSSNTAYLQLSSLTSEDTAVYYCGCRTGGFAYWGQGTLVTVSA
VL: QIVLTQSPAIMSASPGEKVTMTCSASSSVSYLYWYQQKPGSSPSLLIYDTSNLASGVPVRFSGSGSGTSYSLTISRMEAEDAATYYCQQWSRNPWTFGGGTKLEIK
[1]
  IC50, cell killing of U87MG-hEGFRvIII cells (CellTiter-Glo): 0.15 nM

B10: Murine anti-59G3-MMAF (antibody, V domains shown)
VH: DVQLQESGPGLVKPSQSLSLTCSVTGYSITSGYYWHWIRQFPENKLEWMGYISYDGSNIYNPSLKNRISITRDTSKNQFFLKLNSVTTEDTATYYCAINSDYALDYWGQGTSVTVSS
VL: QIVLTQSPAIMSASPGEKVTMTCSASSSVSYMYWYQQKPGSSPRLLIYDTSNLASGVPVRFSGSGSGTSYSLTISRMEAEDAATYYCQQWSSYSLTFGAGTKLELK
[1]
  IC50, cell killing of U87MG-hEGFRvIII cells (CellTiter-Glo): 0.06 nM

B11: Murine anti-63A10 (antibody, V domains shown)
VH: QVQLQQSGAELARPGASVKMSCKASGYTFISFTMHWVKQRPGQGLEWIGYINPNSGYTKYNQKFKDKATLTAGQSSSTAYMQLSSLTSEDSAVYYCTRGGGRGFAYWGQGTLVTVSA
VL: DILMTQSPSSMSVSLGDTVTITCHASQDINSNIGWLQQKPGKSFKALIYHGTNLEDGVPSRFSGSGSGADYSLTISSLESEDFADYYCVQYAQFPFTFGSGTKLEIK
notes: murine hybridoma antibody; also called 63A10A7
[2]
  OD450 nm: 0.08
[3]
  OD450 nm: 0.09
[4]
  OD450 nm: 0.17
[5]
  OD450 nm: 0.8
[6]
  OD450 nm: 3.42
[7]
  OD450 nm: 3.71
[8]
  OD450 nm: 3.76

B12: Murine anti-43H6 (antibody, V domains shown)
VH: INAEYAGGPGLVKPSQSLSLTCTVTDYSITSDYAWNWIRQFPGNKLEWMGYISYSGNTNYNPSLKSRISITRDTSKNQFFLQLNSVTTEDTATYYCARLGRGFAYWGQGTLVTVSA
VL: DILMTQSPSSMSVSLGDTVSITCHASQDINSNIGWLQQKPGTSFKGLIYHGRNLEDGVPSRFSGSGSGEDYSLTISSLESEDFADYYCVQYAHFPPTFGAGTKLELK
notes: Mouse hybridoma antibody; also called 43H6A1
[9]
  EC50: 4 nM

B13: Murine anti-64F1 (antibody, V domains shown)
VH: QVQLQQSGAELARPGASVKMSCKASGYTFSSYTMHWAKQRPGQGLEWIGYINPSSGYTKYNQKFKDKATLTADKSSSTAYMQLSSLTSEDSIVYYCARGGGRGFAYWGQGTLVTVSA
VL: QIVLTQSPAIMSASPGERVTMTCSASSSVSYMYWYQQKPGSSPRLLIYDTSNLASGVPVRFSGSGSGTSYSLTISRVEAEDAATYYCQQWSSYSLTFGAGTKLELK
notes: murine hybridoma antibody; also called 64F1F8
[2]
  OD450 nm: 0.08
[3]
  OD450 nm: 0.09
[4]
  OD450 nm: 0.16
[5]
  OD450 nm: 1
[6]
  OD450 nm: 3.51
[7]
  OD450 nm: 3.73
[8]
  OD450 nm: 3.76

From patent publication US20210032351A1 (XDCEXPLORER SHANGHAI, published 2021)
